From the RNAGym collection of RNA variant scans (doi:10.1073/pnas.2313332121)

B1: TPR t1 (parent)
chain: GACCAAUCUGCCCUCAGAGCUCGAGAACAUCUUCGGAUGCAGAGGAGGCAGGCUUCGGUGGCGCGAUAGCGCCAACGUCCUCAACCUCCAAUGCAUCCCACCACAUGAUGAUGCCUGAAGAGCCUUGGUUUUUUG

Variants of: B1
Experiment: polymerase ribozyme fitness, log enrichment relative to wild type (log ratio); higher = more active; in vitro selection for triplet polymerase activity
Summary of the method: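 After PCR construction and transcription, each subunit's mutant library from a heterodimeric triplet polymerase ribozyme was annealed with a biotinylated primer, the partner subunit and triplets. Incubation was frozen, at −7 °C, and extended constructs were gel-excised, bound to streptavidin beads and amplified by RT-PCR, in one selection round done in triplicate. Fitness is the logarithm of a genotype's enrichment divided by that of the wild type, from inverse-variance-weighted replicate averages of Illumina-sequenced inputs and outputs. The base of the logarithm is 2, and genotypes needed ≥10 input reads and ≥1 read per output.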

Variant	polymerase ribozyme fitness (log ratio)
C40G C49G G61U U87G U129A	-2.49
C40G C88U G122A	-2.03
C40U U55G U78G U92A G110C G122A C124G	-7.14
C40G G122U	-0.991
C40G C101U	-1.22
C40U G47A	-2.33
C40U C49G U59A	-1.73
G39C G45A	-0.954
G39U A50U G60U G61A C79A	-3.64
C40G C64U	-1.16
G39U C123U	0.845
G39U C123G	0.0216
C40U A74G G77U C123U	1.22
G39A C49A C98A U112C	-3.94
A41C G48C U78G A111G	-1.93
C40A C62A A118G	-2.61
C40A C79G G93C G110A U133A	-5.44
C40U G51C G57U C89U G120U	-3.44
G39A C80A C98U U133A	-6.34
G39U C49G C64U G117C	-4.42
C40U C53G	0.608

Variant	polymerase ribozyme fitness (log ratio)
C40U C53A	0.0513
C40U G42A C101G C114A	-5.28
G39U U106C	-0.461
C40G C64G C85A U112C	-6.02
C40U C56G C72A C76A	-2.93
U38G C64U A66C A90U A91C	-5.32
U38G G69C U112C	-1.03
G39C U55A C56A G63U A121U	-4.47
G39C C98A	-5.08
G39U A43C C62U G127A	-4.5
C40U U92G C98U G113U G117U	-6.95
C40A U78C U92A C115U	-4.02
C40U C101U	0.317
C40A U54C C82G A118U C123U	-0.573
A41C G71U C98U C114A	-5.3
G39U G61A A75U U81C C99A G117U	-7.32
G39A U54A	-0.685
A41C G42C G63U G127C	-4.81
C40U U55C C72U U96C A100C A119U G127U	-4.37
C40A C49U U59A G60A G117C	-7.16
C40A A46U C79G C104U	-6.75

Variant	polymerase ribozyme fitness (log ratio)
C40G G63U C80G C123U	-6.43
G39U U78C G120A	0.169
A41C C49A C72U	-1.51
U38G C82U	-0.857
C40G C53U A121C	1.26
C40G A74G C86A	-1.94
C40G C56A U106C	-1.47
C40A C104U G110A C124U	-2.31
C40G A43C A111C A119G	-4.45
C40A G60A C85G	-2.93
A41C C76U C89U A111C	-1.22
G39U G60A C76G	-3.27
G39A A83U U106A C114U	-4.87
A41C C101A G120C	-1.45
G39U C49U C56U	-1.53
G39A U78C	-1.06
C40U G71U C115U U125G U133C	-0.893
C40G A43C G69U G120C	-0.592
C40U A41C C76U U112A G122A	-3.19
G39A A46U	-1.28
C40A A43U G44C G71U C82A	-4.65

Variant	polymerase ribozyme fitness (log ratio)
G39U G61U U106A	-0.274
C40U A95U G117C A121C	-5.49
C40G C72G U92A G113U	-4.69
G39U C62A C70U	-2.07
G39U G44U C53G C62A C98U U112A U129C U130A	-5.78
A41G A68G C82U	-5.28
A41C C72G	-1.5
C40U G135U	-1.59
G39A G93A U112G C123A	-3.6
C40U G45U G127C	-3.96
G39U G61C	-1.66
U38G A46U G61A U87A	-0.463
G39A C104A	-2.08
G39A C104U	-0.931
U38G C72U C104U	-1.14
G39A G44C	-1.34
C40U C64U C73G G122A	-5.15
C40A G60A G113U G122C	-4.23
C40U G58C	-0.23
C40G A90C U106C U116G A119G U125G	-3.17
